This note sets out measurements from IntAct's records for PubMed 17947231.

The chains are these.
B1: Calvin cycle protein CP12-2, chloroplastic (Arabidopsis thaliana (Mouse-ear cress)), Q9LZP9 (parent)
chain: MATIATGLNIATQRVFVTSENRPVCLAGPVHLNNSWNLGSRTTNRMMKLQPIKAAPEGGISDVVEKSIKEAQETCAGDPVSGECVAAWDEVEELSAAASHARDKKKADGSDPLEEYCKDNPETNECRTYDN
partner: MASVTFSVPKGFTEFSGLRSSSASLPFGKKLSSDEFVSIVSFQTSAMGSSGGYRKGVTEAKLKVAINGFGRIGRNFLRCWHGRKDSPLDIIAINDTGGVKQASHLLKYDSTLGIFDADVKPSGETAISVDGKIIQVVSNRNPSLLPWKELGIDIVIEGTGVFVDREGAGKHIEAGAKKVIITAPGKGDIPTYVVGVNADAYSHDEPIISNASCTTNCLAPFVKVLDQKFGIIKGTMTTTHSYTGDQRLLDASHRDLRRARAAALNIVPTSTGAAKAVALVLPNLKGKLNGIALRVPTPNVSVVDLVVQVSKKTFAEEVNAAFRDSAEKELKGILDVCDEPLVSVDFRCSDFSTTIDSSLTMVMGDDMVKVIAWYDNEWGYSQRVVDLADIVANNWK

The variants in the assay derive from B1. As to conditions: with GAPA1, P25856.
On to MATIATGLNIATQRVFVTSENRPVCLAGPVHLNNSWNLGSRTTNRMMKLQPIKAAPEGGISDVVEKSIKEAQETCAGDPVSGECVAAWDEVEELSAAASHARDKKKADGSDPLEEYCKDNPETNESRTYDN [C126S], for which the “effect of a mutation on the interaction” value was “disrupting interaction”.
